# Target: the molecule itself
# Assay: native gel or EMSA
protein,measurement,value
"Human recombinant ALDH2 protein (mitochondrial aldehyde dehydrogenase), untreated (enzyme, UniProt P05091 18-517, looked up) SAAATQAVPAPNQQPEVFCNQIFINNEWHDAVSRKTFPTVNPSTGEVICQVAEGDKEDVDKAVKAARAAFQLGSPWRRMDASHRGRLLNRLADLIERDRTYLAALETLDNGKPYVISYLVDLDMVLKCLRYYAGWADKYHGKTIPIDGDFFSYTRHEPVGVCGQIIPWNFPLLMQAWKLGPALATGNVVVMKVAEQTPLTALYVANLIKEAGFPPGVVNIVPGFGPTAGAAIASHEDVDKVAFTGSTEIGRVIQVAAGSSNLKRVTLELGGKSPNIIMSDADMDWAVEQAHFALFFNQGQCCCAGSRTFVQEDIYDEFVERSVARAKSRVVGNPFDSKTEQGPQVDETQFKKILGYINTGKQEGAKLLCGGGIAADRGYFIQPTVFGDVQDGMTIAKEEIFGPVMQILKFKTIEEVVGRANNSTYGLAAAVFTKDLDKANYLSQALQAGTVWVNCYDVFGAQSPFGGYKMSGSGRELGEYGLQAYTEVKTVTVKVPQKNS",binding result,binds
